Measurements taken from patent US4608364A, “Pharmaceutical agent for the treatment of diabetes mellitus” (Hoechst Aktiengesellschaft, priority 1983, dated 1986).

Key:
[1] = Biological activity of insulins and insulin derivatives; conditions: specific activity of the active compound used in the formulation
[2] = unmodified hormone, background statement; region of maximum insolubility; cited from earlier work
[3] = based on the amount of protein; cited from earlier work

Substance | biological activity per mg [1] | isoelectric point [2] | inherent biological activity as fraction of the activity of insulin [3]
Porcine proinsulin: porcine proinsulin, dissolved component of Example 2 | 3.3 IU/mg | – | –
insulin [reference compound] | – | 5.4 | –
proinsulin: naturally occurring precursor of insulin, A and B chain linked by the C peptide | – | 5.4 | about 1/8
